Results: patent publication US20140072613A1 (published 2014)

T1: PKCζ(h) (human, UniProt Q05513 1-592)
T1 sequence (looked up): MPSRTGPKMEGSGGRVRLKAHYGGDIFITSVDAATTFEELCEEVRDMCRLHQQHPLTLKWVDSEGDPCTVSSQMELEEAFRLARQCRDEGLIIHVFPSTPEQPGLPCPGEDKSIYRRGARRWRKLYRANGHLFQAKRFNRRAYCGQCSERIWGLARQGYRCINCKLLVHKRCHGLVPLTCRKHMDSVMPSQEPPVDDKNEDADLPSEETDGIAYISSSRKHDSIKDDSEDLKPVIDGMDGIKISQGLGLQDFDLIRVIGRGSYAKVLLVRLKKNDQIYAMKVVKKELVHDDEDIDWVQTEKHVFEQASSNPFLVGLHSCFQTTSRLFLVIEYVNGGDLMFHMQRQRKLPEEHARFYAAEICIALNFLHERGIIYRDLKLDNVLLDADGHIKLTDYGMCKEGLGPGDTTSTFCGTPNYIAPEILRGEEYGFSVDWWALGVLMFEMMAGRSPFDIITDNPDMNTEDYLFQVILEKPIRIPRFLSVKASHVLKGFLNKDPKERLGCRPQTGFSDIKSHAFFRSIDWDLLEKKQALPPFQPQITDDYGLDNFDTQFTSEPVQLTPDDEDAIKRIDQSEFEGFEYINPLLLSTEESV

T2: SAPK3(h) (human, UniProt P53778 1-367)
T2 sequence (looked up): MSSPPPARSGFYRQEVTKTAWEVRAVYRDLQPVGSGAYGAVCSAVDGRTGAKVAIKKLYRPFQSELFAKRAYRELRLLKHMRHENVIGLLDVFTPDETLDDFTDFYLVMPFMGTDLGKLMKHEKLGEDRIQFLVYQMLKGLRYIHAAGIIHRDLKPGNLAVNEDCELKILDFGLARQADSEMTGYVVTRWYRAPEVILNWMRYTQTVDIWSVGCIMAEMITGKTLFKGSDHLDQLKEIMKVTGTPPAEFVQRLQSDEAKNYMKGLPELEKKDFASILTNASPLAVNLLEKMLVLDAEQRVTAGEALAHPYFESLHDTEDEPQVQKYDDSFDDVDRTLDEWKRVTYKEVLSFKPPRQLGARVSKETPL

T3: EphA4(h) (human, UniProt P54764 570-986, limits assumed)
T3 sequence (looked up): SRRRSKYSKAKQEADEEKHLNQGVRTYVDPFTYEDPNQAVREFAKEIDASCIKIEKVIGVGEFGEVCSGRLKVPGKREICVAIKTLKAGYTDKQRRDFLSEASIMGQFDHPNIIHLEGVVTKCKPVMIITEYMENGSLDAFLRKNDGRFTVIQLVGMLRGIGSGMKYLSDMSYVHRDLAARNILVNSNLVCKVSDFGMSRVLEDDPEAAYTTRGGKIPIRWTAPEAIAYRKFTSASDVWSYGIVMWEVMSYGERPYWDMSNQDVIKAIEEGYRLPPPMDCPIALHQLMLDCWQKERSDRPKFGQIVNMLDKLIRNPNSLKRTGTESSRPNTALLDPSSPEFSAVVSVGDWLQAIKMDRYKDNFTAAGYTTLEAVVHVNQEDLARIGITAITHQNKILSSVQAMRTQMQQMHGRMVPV

T4: ALK4(h) (human, UniProt P36896 150-505, limits assumed)
T4 sequence (looked up): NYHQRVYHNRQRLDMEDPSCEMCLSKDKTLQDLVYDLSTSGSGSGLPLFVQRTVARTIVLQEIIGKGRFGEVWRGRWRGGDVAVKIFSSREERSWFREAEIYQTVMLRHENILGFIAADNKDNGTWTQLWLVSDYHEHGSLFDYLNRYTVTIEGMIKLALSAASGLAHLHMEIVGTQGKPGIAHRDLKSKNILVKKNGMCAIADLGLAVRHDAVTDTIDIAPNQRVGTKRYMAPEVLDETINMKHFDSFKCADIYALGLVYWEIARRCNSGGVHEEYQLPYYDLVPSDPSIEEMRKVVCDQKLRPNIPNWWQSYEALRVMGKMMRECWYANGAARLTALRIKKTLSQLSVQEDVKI


Assays:
Assay in all cases: cell-based or functional assay
[1] = biological target: CSK(h) (human, UniProt P41240 1-450)
[2] = biological target: Abl(h) (human, UniProt P00519 27-1130, limits assumed)
[3] = biological target: STK33(h) (human, UniProt Q9BYT3 1-514, limits assumed)
[4] = biological target: GSK3α(h) (human, UniProt P49840 1-483)
[5] = biological target: Pim-1(h) (human, UniProt P11309 1-313)
[6] = biological target: T1, PKCζ(h)
[7] = biological target: Met(D1246H)(h) (human, UniProt P08581-2 974-1408, limits assumed)
[8] = biological target: T2, SAPK3(h)
[9] = biological target: IRAK1(h) (human, UniProt P51617 194-712, limits assumed)
[10] = biological target: Src(T341M)(h) (human, UniProt P12931 1-536, limits assumed)
[11] = biological target: RIPK2(h) (human, UniProt O43353 1-299, limits assumed)
[12] = biological target: EGFR(h) (human, UniProt P00533 696-1210, limits assumed)
[13] = biological target: CaMKI(h) (human, UniProt Q14012 1-370)
[14] = biological target: T3, EphA4(h)
[15] = biological target: CDK1/cyclinB(h) (human, UniProt P06493 1-297; P14635 1-433)
[16] = biological target: BTK(h) (human, UniProt Q06187 1-659)
[17] = biological target: CK1γ2(h) (human, UniProt P78368 1-415)
[18] = biological target: T4, ALK4(h)
[19] = biological target: JNK2α2(h) (human, UniProt P45984 1-424)
[20] = biological target: Abl(T315I)(h) (human, UniProt P00519 27-1130, limits assumed)

| Binder | % activity, 100 µM [1] [%] | % activity, 100 µM [2] [%] | % activity, 100 µM [3] [%] | % activity, 100 µM [4] [%] | % activity, 100 µM [5] [%] | % activity, 100 µM [6] [%] | % activity, 100 µM [7] [%] | % activity, 100 µM [8] [%] | % activity, 100 µM [9] [%] | % activity, 100 µM [10] [%] | % activity, 100 µM [11] [%] | % activity, 100 µM [12] [%] | % activity, 100 µM [13] [%] | % activity, 100 µM [14] [%] | % activity, 100 µM [15] [%] | % activity, 100 µM [16] [%] | % activity, 100 µM [17] [%] | % activity, 100 µM [18] [%] | % activity, 100 µM [19] [%] | % activity, 100 µM [20] [%] |
| --- | --- | --- | --- | --- | --- | --- | --- | --- | --- | --- | --- | --- | --- | --- | --- | --- | --- | --- | --- | --- |
| FAKLAARLYRKALARQLGVAA [MMI-0300] | 49 | 69 | 45 | 157 | 8 | 81 | 125 | 84 | 95 | 70 | 97 | 21 | 1 | 88 | 73 | 102 | 123 | 140 | 98 | 97 |
| KAFAKLAARLYRKALARQLGVAA [MMI-0400] | 16 | 84 | 52 | 164 | 7 | 75 | 68 | 79 | 93 | 76 | 98 | 16 | 0 | 65 | 74 | 94 | 114 | 130 | 96 | 105 |
